The record followed here is article doi:10.1101/2021.03.19.436211 (bioRxiv, 2021).

The series “SEC-MALS” deals with the molecule itself. The series can be described thus: SEC-MALS. On the technique in general: Size exclusion chromatography separates by hydrodynamic size, large species first.
The series “crystal structure” concerns the molecule itself. Briefly: crystal structure.
The series “SEC” concerns the molecule itself. The series can be described thus: SEC.

B1: mouse lipin 1 M-Lip^xtal domain (as used for SEC-MALS) (domain or fragment, UniProt Q91ZP3-2 458-548, looked up)
chain: SLRDLPSIAISLCGGLSDHREITKDAFLEQAVSYQQFADNPAIIDDPNLVVKVGNKYYNWTTAAPLLLAMQAFQKPLPKATVESIMRDKMP
One may read the stoichiometry N as the number of molecules, sites or subunits per partner or assembly. On to B1, for which the “stoichiometry N” value in the series “SEC-MALS” was 2.

B2: mouse lipin 2 M-Lip^xtal domain (domain or fragment, UniProt Q99PI5 459-549, looked up)
chain: SAMDLPDVTLSLCGGLSENGEISKEKFMEHIITYHEFAENPGLIDNPNLVIRIYNRYYNWALAAPMILSLQVFQKSLPKATVESWVKDKMP
Take B2: the binding result in “crystal structure” was “binds”.

B3: full-length mouse lipin 1α (purified from Sf9 cells) (enzyme, UniProt Q91ZP3-2 1-891, looked up)
chain: MNYVGQLAGQVFVTVKELYKGLNPATLSGCIDIIVIRQPNGSLQCSPFHVRFGKMGVLRSREKVVDIEINGESVDLHMKLGDNGEAFFVQETDNDQEIIPMYLATSPILSEGAARMESQLKRNSVDRIRCLDPTTAAQGLPPSDTPSTGSLGKKRRKRRRKAQLDNLKRDDNVNSSEDEDMFPIEMSSDEDTAPMDGSRTLPNDVPPFQDDIPKENFPSISTHPQSASYPSSDREWSPSPSPSGSRPSTPKSDSELVSKSADRLTPKNNLEMLWLWGELPQAAKSSSPHKMKESSPLGSRKTPDKMNFQAIHSESSDTFSDQSPTMARGLLIHQSKAQTEMQFVNEEDLESLGAAAPPSPVAEELKAPYPNTAQSSSKTDSPSRKKDKRSRHLGADGVYLDDLTDMDPEVAALYFPKNGDPGGLPKQASDNGARSANQSPQSVGGSGIDSGVESTSDSLRDLPSIAISLCGGLSDHREITKDAFLEQAVSYQQFADNPAIIDDPNLVVKVGNKYYNWTTAAPLLLAMQAFQKPLPKATVESIMRDKMPKKGGRWWFSWRGRNATIKEESKPEQCLTGKGHNTGEQPAQLGLATRIKHESSSSDEEHAAAKPSGSSHLSLLSNVSYKKTLRLTSEQLKSLKLKNGPNDVVFSVTTQYQGTCRCEGTIYLWNWDDKVIISDIDGTITRSDTLGHILPTLGKDWTHQGIAKLYHKVSQNGYKFLYCSARAIGMADMTRGYLHWVNERGTVLPQGPLLLSPSSLFSALHREVIEKKPEKFKVQCLTDIKNLFFPNTEPFYAAFGNRPADVYSYKQVGVSLNRIFTVNPKGELVQEHAKTNISSYVRLCEVVDHVFPLLKRSHSCDFPCSDTFSNFTFWREPLPPFENQDMHSASA
As to B3, the binding result in “SEC” is reported as “binds”.
